The source of these data is article PMC5611513, “Structure-Based Prototype Peptides Targeting the Pseudomonas aeruginosa Type VI Secretion System Effector as a Novel Antibacterial Strategy” (Frontiers in Cellular and Infection Microbiology, 2017).

This experiment relates to E. coli BL21 (DE3). The experiment in a line: Cell-toxicity assay, spot growth on LB agar. The experiment is classed as cell-based, Escherichia coli. The note with it: E. coli BL21 (DE3), 0.045 mM IPTG, 24 h. The method, then:
Cell-toxicity assay was carried as previously described with minor modification (Jiang et al., [2016]). […] A 2 μl bacterial dilution was spotted onto LB agar plate containing 0.045 mM IPTG. Images were taken after 24 h growth.
(A) Diagrams of TplE, TplE-TplEi and “L” peptide expressing constructs. Expression of vector sequence and “L” peptide mutant with the PelB signal peptide was used as a control. […] A 10-fold serial dilution of overnight culture was spotted on LB agar plates from left to right. The experiments were performed at least 3 times.

B1: TplE: H2-T6SS-dependent antibacterial lipolytic toxin (lipase effector) of P. aeruginosa (protein)
chain: MSSEPLEPNQDVIIPRSRDSLGRPVYKAQLTRTDNQSEKVALIRQTAPLPVIFIPGIMGTNLRNKADKSEVWRPPNGLWPMDDLFASIGALWTWAWRGPKARQELLKAEQVEVDDQGTIDVGQSGLSEEAARLRGWGKVMRSAYNPVMGLMERRLDNIVSRRELQAWWNDEALSPPGDQGEEQGKVGPIDEEELLRASRYQFDVWCAGYNWLQSNRQSALDVRDYIENTVLPFYQKECGLDPEQMRRMKVILVTHSMGGLVARALTQLHGYERVLGVVHGVQPATGSSTIYHHMRCGYEGIAQVVLGRNAGEVTAIVANSAGALELAPSAEYREGRPWLFLCDAQGQVLKDIDGKPRAYPQNQDPYEEIYKNTTWYGLVPEQNSQYLDMSDKKEGLRVGPRDNFEDLIDSIANFHGELSAAGYHSETYAHYGADDSRHSWRDLIWKGDPTPLETPGATLNDDENGTYNSWFRRGLPTIVQGPLETGNPLDASGSGGDETVPTDSGQAPALAGVKASFRHGSKGKGQANTKRGYEHQESYNDARAQWAALYGVIKITQLADWHPNDKGGT
As for B1, the “growth of E. coli on periplasmic expression of TplE” value (periplasmic-targeted TplE alone) is “significant inhibition of growth”.

B2: TplEi: cognate periplasmic immunity protein that neutralizes TplE (protein)
chain: CTSFSSSRSSSMDKTGWITHCFGRFLIDLPPDAVINAGYYLWGDRIEYLDDKPTELAARVDRLEQEWRTQRHKSKGNMFLRKIDFGNESVGLLSWSSEVASKTYLLDTYVTSKPTWHVYRWKGKVSVDREQHAVEISRALARNLRSRAPKEIPSEPGFCIDHAYIAGDSFQVERFGVGVTFPEHPGARFEFRSSTGAELNSLLERVDGFVQNMLSTFAGMETLRKGKHPVGSLPGEEYLVAGSDKGQRGYTFMWEVQGKEESLTEPNLTAGLAVLERSNENGKPPPPAFKSDKEALELWDTIVDSIRVRPTSSSPRGGNAGPSPAPKPATPGGQTLGDHYVYEEFLSSLKPKDSWLDDL
In the case of B2, the “effect of co-expression of TplEi on TplE-dependent growth inhibition” value (TplE-TplEi co-expressed) is “repressed the TplE-dependent growth inhibition”.
